Series [1] relates to T1, D-2 FLAG (branched peptide; branching symbol printed as an image).
T1 sequence 1: FFKY
T1 sequence 2: DYKDDDDKG

Series [2] deals with T2, L-2 FLAG (branched peptide; branching symbol printed as an image).
T2 sequence 1: XFKY
T2 sequence 2: DYKDDDDKG

On to “enterokinase (ENTK), enzyme added in solution”, for which the “circular dichroism after ENTK cleavage of the branch” value in series [1] was “the cleavage of the branch results in largely β-sheet (D-1) and random-coil (FLAG-tag) like secondary structures ... as well as for those of D-2 FLAG and L-2 FLAGs”; in series [2] it was “the cleavage of the branch results in largely β-sheet (D-1) and random-coil (FLAG-tag) like secondary structures ... as well as for those of D-2 FLAG and L-2 FLAGs”.

The values above are taken from patent publication US20220112240.
